Results taken from the RNAGym collection of RNA variant scans (doi:10.1021/acssynbio.7b00057).

B1: Pistol ribozyme (parent)
chain: GGGUCGUUGUUCCAUAAUCGCGUGGAUAUGGCACGCAAGUUUCUACCGGGCACCGUAAAUGUCCGACUGGAGCCGUUCGGGCGGCUAUAAACAGACCUCAGGCCCGAAGCGUGGCGGCACCUGCCGCCGGUGGUAAAAAAGAUCGGAAGAGCACACGUCU

Variants of: B1
Assay: aptazyme ON/OFF ratio, guanine; higher = stronger switching; co-transcriptional cleavage with and without guanine

| Variant | aptazyme ON/OFF ratio |
| --- | --- |
| U8G G9A U10A U11G C12A C13A | 1.17 |
| U8G G9A U10A U11G C12A C13G | 1.09 |
| U8G G9A U10A U11G C12A C13U | 1.27 |
| U8G G9A U10C U11C | 1.03 |
| U8G G9A U10C U11A | 1.37 |
| U8G G9A U10C U11G | 1.34 |
| U8G G9A U10G C13G | 1.34 |
| U8G G9A U10G C13U | 1.58 |
| U8G G9A U10G C13A | 0.997 |
| U8G G9A U10A C12U C13G | 1.31 |
| U8G G9A U10A C12U C13A | 1.15 |
| U8G G9A U10A C12U C13U | 1.29 |
| U8G G9A C13G | 1.07 |
| U8G G9A C13U | 1.28 |
| U8G G9A C13A | 1.24 |
| U8G C13G | 1.2 |
| U8G C13U | 1.27 |
| U8G G9A U10C U11A C12U | 1.1 |
| U8G G9A U10C U11A C12A | 1.22 |
| U8G G9A U10C U11A C12G | 1.14 |
| U8G G9A U10C U11C C12A | 1.08 |
| U8G G9A U10C U11C C12U | 1.02 |
| U8G G9A U10C U11C C12G | 1.05 |
| U8G G9A U10A C12A C13A | 1.33 |

| Variant | aptazyme ON/OFF ratio |
| --- | --- |
| U8G G9A U10A C12A C13U | 1.26 |
| U8G G9A U10A C12A C13G | 1.18 |
| U8G G9A U10G C12G C13A | 1.52 |
| U8G G9A U10G C12G C13G | 1.16 |
| U8G G9A U10G C12G C13U | 1.27 |
| U8G G9A U10A U11G C12U C13A | 1.31 |
| U8G G9A U10A U11G C12U C13U | 1.56 |
| U8G G9A U10A U11G C12U C13G | 1.25 |
| U8G G9A U10A U11C C12A C13U | 1.32 |
| U8G G9A U10A U11C C12A C13A | 1.21 |
| U8G G9A U10A U11C C12A C13G | 1.12 |
| U8G G9A U10A U11G C13U | 1.06 |
| U8G G9A U10A U11G C13A | 1.23 |
| U8G G9A U10A U11G C13G | 1.07 |
| U8G G9A U10C U11C C12G C13G | 1.1 |
| U8G G9A U10C U11C C12G C13A | 1.09 |
| U8G G9A U10C U11C C12G C13U | 1.05 |
| U8G G9A U10C C12A C13U | 1.17 |
| U8G G9A U10C C12A C13A | 1.2 |
| U8G G9A U10C C12A C13G | 1.09 |
| U8G G9A U10A U11C C12G C13U | 1.36 |
| U8G G9A U10A U11C C12G C13A | 1.24 |
| U8G G9A U10A U11C C12G C13G | 1.21 |
| U8G G9A U10C | 2.29 |

| Variant | aptazyme ON/OFF ratio |
| --- | --- |
| U8G G9A U10A | 1.24 |
| U8G G9A U10G | 2.04 |
| U8G G9A U10C U11C C12U C13G | 1.04 |
| U8G G9A U10C U11C C12U C13U | 1.03 |
| U8G G9A U10C U11C C12U C13A | 1.04 |
| U8G G9A U10C C12U C13G | 1.08 |
| U8G G9A U10C C12U C13U | 1.11 |
| U8G G9A U10C C12U C13A | 1.14 |
| U8G G9A U10G U11A C12A C13U | 1.48 |
| U8G G9A U10G U11A C12A C13A | 1.29 |
| U8G G9A U10G U11A C12A C13G | 1.27 |
| U8G G9A | 1.64 |
| U8G G9A U10G C12U C13G | 1.16 |
| U8G G9A U10G C12U C13A | 1.32 |
| U8G G9A U10G C12U C13U | 1.18 |
| U8G G9A U10A U11A C12G | 1.28 |
| U8G G9A U10A U11A C12A | 1.21 |
| U8G G9A U10A U11A C12U | 1.35 |
| U8G G9A U10C U11G C12U C13U | 1.21 |
| U8G G9A U10C U11G C12U C13G | 1.18 |
| U8G G9A U10C U11G C12U C13A | 1.34 |
| U8G G9A U10C U11C C12A C13A | 1.05 |
| U8G G9A U10C U11C C12A C13U | 1.07 |
| U8G G9A U10C U11C C12A C13G | 1.12 |

| Variant | aptazyme ON/OFF ratio |
| --- | --- |
| U8G G9A U10C C12G C13G | 1.2 |
| U8G G9A U10C C12G C13U | 1.33 |
| U8G G9A U10C C12G C13A | 1.21 |
| U8G G9A U10A C12G C13G | 1.3 |
| U8G G9A U10A C12G C13A | 1.22 |
| U8G G9A U10A C12G C13U | 1.35 |
| U8G G9A U10G U11A | 1.05 |
| U8G G9A U10C U11G C13A | 1.11 |
| U8G G9A U10C U11G C13U | 1.09 |
| U8G G9A U10C U11G C13G | 1.16 |
| U8G G9A U10A U11C | 1.06 |
| U8G G9A U10A U11G | 1.55 |
| U8G G9A U10A U11A | 1.6 |
| U8G G9A U10A U11A C12U C13U | 1.21 |
| U8G G9A U10A U11A C12U C13A | 1.36 |
| U8G G9A U10A U11A C12U C13G | 1.09 |
| U8G G9A U10C U11A C13A | 1.1 |
| U8G G9A U10C U11A C13U | 1.08 |
| U8G G9A U10C U11A C13G | 1.06 |
| U8G G9A U10A U11C C13U | 1.01 |
| U8G G9A U10A U11C C13A | 1.08 |
| U8G G9A U10A U11C C13G | 1.04 |
| U8G G9A U10A C12U | 1.27 |
| U8G G9A U10A C12A | 1.32 |

| Variant | aptazyme ON/OFF ratio |
| --- | --- |
| U8G G9A U10A C12G | 1.18 |
| U8G G9A U10A U11C C12U C13A | 1.18 |
| U8G G9A U10A U11C C12U C13U | 1.07 |
| U8G G9A U10A U11C C12U C13G | 1.23 |
| U8G G9A U10A U11A C13U | 1.17 |
| U8G G9A U10A U11A C13G | 1.01 |
| U8G G9A U10A U11A C13A | 1.12 |
| U8G G9A U10C U11G C12G | 1.45 |
| U8G G9A U10C U11G C12A | 1.06 |
| U8G G9A U10C U11G C12U | 1.29 |
| U8G G9A C12U | 1.39 |
| U8G G9A C12A | 1.61 |
| U8G G9A C12G | 1.16 |
| U8G G9A C12U C13U | 1.25 |
| U8G G9A C12U C13G | 1.28 |
| U8G G9A C12U C13A | 1.25 |
| U8G G9A U10C C13G | 1.03 |
| U8G G9A U10C C13U | 1.07 |
| U8G G9A U10C C13A | 1.04 |
| U8G G9A C12A C13G | 1.27 |
| U8G G9A C12A C13A | 1.25 |
| U8G G9A C12A C13U | 1.39 |
| U8G G9A U10C U11A C12U C13G | 1.05 |
| U8G G9A U10C U11A C12U C13A | 1.04 |

| Variant | aptazyme ON/OFF ratio |
| --- | --- |
| U8G G9A U10C U11A C12U C13U | 1.05 |
| U8G G9A U10C C12A | 1.25 |
| U8G G9A U10C C12G | 1.2 |
| U8G G9A U10C C12U | 1.14 |
| U8G G9A U10C U11G C12G C13A | 1.34 |
| U8G G9A U10C U11G C12G C13G | 1.42 |
| U8G G9A U10C U11G C12G C13U | 1.14 |
| U8G G9A U10A U11A C12G C13U | 1.27 |
| U8G G9A U10A U11A C12G C13A | 1.22 |
| U8G G9A U10A U11A C12G C13G | 1.39 |
| U8G G9A U10A U11A C12A C13A | 1.21 |
| U8G G9A U10A U11A C12A C13G | 1.18 |
| U8G G9A U10A U11A C12A C13U | 1.26 |
| U8G G9A U10G C12A C13G | 1.18 |
| U8G G9A U10G C12A C13U | 1.45 |
| U8G G9A U10G C12A C13A | 1.29 |
| U8G G9A U10A U11G C12U | 1.3 |
| U8G G9A U10A U11G C12G | 1.48 |
| U8G G9A U10A U11G C12A | 1.08 |
| U8G G9A U10C U11A C12A C13G | 1.11 |
| U8G G9A U10C U11A C12A C13A | 1.15 |
| U8G G9A U10C U11A C12A C13U | 1.16 |
| U8G G9A U10G C12U | 1.39 |
| U8G G9A U10G C12G | 1.34 |

| Variant | aptazyme ON/OFF ratio |
| --- | --- |
| U8G G9A U10G C12A | 1.44 |
| U8G G9A C12G C13U | 1.33 |
| U8G G9A C12G C13A | 1.37 |
| U8G G9A C12G C13G | 1.29 |
| U8G G9A U10A U11C C12G | 1.23 |
| U8G G9A U10A U11C C12U | 1.04 |
| U8G G9A U10A U11C C12A | 1.2 |
| U8G G9A U10C U11G C12A C13U | 1.16 |
| U8G G9A U10C U11G C12A C13G | 1.18 |
| U8G G9A U10C U11G C12A C13A | 1.18 |
| U8G G9A U10G U11A C12A | 1.34 |
| U8G G9A U10C U11C C13G | 1.03 |
| U8G G9A U10C U11C C13A | 0.984 |
| U8G G9A U10C U11C C13U | 1.03 |
| U8G G9A U10A C13U | 1.22 |
| U8G G9A U10A C13G | 1.08 |
| U8G G9A U10A C13A | 1.25 |
| U8G G9A U10C U11A C12G C13U | 1.15 |
| U8G G9A U10C U11A C12G C13G | 1.07 |
| U8G G9A U10C U11A C12G C13A | 1.16 |
| U8G G9A U10A U11G C12G C13G | 1.05 |
| U8G G9A U10A U11G C12G C13U | 1.28 |
| U8G G9A U10A U11G C12G C13A | 1.34 |
